The results in this text go back to article PMC5666606 (The EMBO Journal, 2017).

Experiment [1] has as its target T1, RBPJ-(53-474) (mouse, UniProt P31266 53-474). In words: ITC.
Experiment [2] addresses T1, RBPJ-(53-474). Put plainly: ITC. This is another data set of the same source. On the technique in general: In ITC the heat of successive injections is recorded.

T1 sequence (P31266 53-474): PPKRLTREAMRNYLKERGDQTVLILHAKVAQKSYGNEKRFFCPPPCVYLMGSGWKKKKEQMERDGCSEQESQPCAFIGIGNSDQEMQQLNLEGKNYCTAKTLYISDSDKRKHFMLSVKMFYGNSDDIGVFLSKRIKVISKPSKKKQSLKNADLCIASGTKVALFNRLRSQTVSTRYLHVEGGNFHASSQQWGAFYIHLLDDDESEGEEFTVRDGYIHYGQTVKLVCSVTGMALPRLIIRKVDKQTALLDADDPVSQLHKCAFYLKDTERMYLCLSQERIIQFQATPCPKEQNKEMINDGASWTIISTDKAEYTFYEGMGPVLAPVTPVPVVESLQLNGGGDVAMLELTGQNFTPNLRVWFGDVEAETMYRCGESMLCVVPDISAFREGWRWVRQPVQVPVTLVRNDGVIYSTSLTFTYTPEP

Consider SDLKFRVNEFGALEVITDENEMENVKKATATTTWMVPTAQ (domain or fragment, human, UniProt Q96JM7 31-70, looked up) [L3MBTL3-(31-70)], for which, in the experiment with RBPJ-(53-474) [1], the “stoichiometry N” value came out at 1. In the experiment with RBPJ-(53-474) [2], this molecule came in with a Ka of 2.27e+06 M⁻¹, a dissociation constant (Kd) of 450 nM and a dH of -7.52 kcal/mol.

One may read the stoichiometry N as the number of molecules, sites or subunits per partner or assembly. The term Kd denotes the constant that tells how readily two partners part at equilibrium. Lower therefore signals higher affinity.
